In the DeepSol protein solubility set:

experiment: soluble on expression in E. coli; label from the status in PepcDB or PDB records

Sequence	soluble on expression in E. coli
MNAIADVQSSRDLRNLPINQVGIKDLRFPITLKTAEGTQSTVARLTMTVYLPAEQKGTHMSRFVALMEQHTEVLDFAQLHRLTAEMVALLDSRAGKISVSFPFFRKKTAPVSGIRSLLDYDVSLTGEMKDGAYGHSMKVMIPVTSLCPCSKEISQYGAHNQRSHVTVSLTSDAEVGIEEVIDYVETQASCQLYGLLKRPDEKYVTEKAYENPKFVEDMVRDVATSLIADKRIKSFVVESENFESIHNHSAYAYIAYP	soluble
MIKSALLVLEDGTQFHGRAIGAEGTAVGEVVFNTSMTGYQEILTDPSYSRQIVTLTYPHIGNVGTNASDEESSAVHAQGLVIRDLPLIASNYRNEEGLSEYLKRHNIVAIADIDTRKLTRLLREKGAQNGCIIVGELSDAALALEKAKAFPGLKGMDLAKEVTTKEMYQWLQGSWTLEGDLPAAKQPEDLPFHVVAYDYGVKRNILRMLVDRGCRLTVVPAQTPAEDVLKLNPDGIFLSNGPGDPEPCDYAITAIKRFLETDIPVFGICLGHQLLALASGAKTVKMKFGHHGGNHPVKDLDASCVMITAQNHGFAVDETSLPSNLRTTHVSLFDGSLQGLHRTDKAAFSFQGHPEASPGPHDAAPLFDHFIELIEAYRASSVSLNCSNSHK	not soluble
MNRKAFLACVLMCVILTGCETAKKISEVIKNPDIQVGSLKEQPSEITVTLLTEPDTNTNAEGESAAVDVQLVYLTDDSKLQAADYDQIASTPLPDVLGKNYIDHQDFNLLPDTIKTLPPIKLDEKTQFIGVVAYFSDDQATEWKQIETVEGTGHHYRLLVHVRQSSIEMKKEDE	soluble
MSLEELSLYTLRHVLERSAVLYADQPSLSQLGCEPLTFRDLHDHAEHLALWLRDNGVGTGDRVALLAENSPNWGIAYFAITGMGAIAVPILPEFHADAVQHILRHSEAKAVFVSERLFPKLEEGEGIADSLMCISMETFQSIAQGTTRDMLRELKSKGLREFRKLRDKAKRLANMADAAPAEDDVAAIIYTSGTTGHSKGVVLTHRNIVWDADAVKSIVKLGPGDRMLSILPLSHTYECTLGLVLPVLNGAHVHYMDKPPTARALLPAMAQVRPTAMLSVPLVIEKIFKTALLPKLTGSWLKQRLYAIPFVRRKLHALAGRKLLESFGGALRIFCIGGAGIAPDVERFLREANFPYAIGYGLTETAPLVAGSGPASTRLTSTGFTLDGVDIAIDAPDPATGEGEIIVRGPNVMREYYKAPQITASAFTPEGWFRTGDLGKFDADGYLYIKGRLKNVIIGPSGENIYPEEVEAIIHQSPFVLESLVFQQDGRLVARIHLDAARLDESFGDLPALKQREKIDALLETLRNEVNTKVSTFARLAKVIEQTEPFEKTPTHKIKRYLYVEQEGHHHHHH	soluble
MSLTRCVLEGMKTKHALRHHMKLHKGIKEYECKECHRRFAQKVNMLKHCKRHTGIKDFMCELCGKTFSERNTMETHKLIHTVGKQWTCSVCDKKYVTEYMLQKHVQLTHDKVEAQSCQLCGTKVSTRASMSRHMRRKHPEVLAVRIDEGHHHHHH	not soluble
MSCYYYCKYCKEYKNKHHDCCKNTSKCHDNKDNLVRASAFRARNTVNQNVPANTFVKVLFQNEQFDLANEYNPATSIFMPKTKGVYSIIGTIGFFPNDPTLNYRARVEIRVNGNAAIAIDNDFFGPISFGNVVSVSTIVQLNAGDEVEIYAQSSIDGVLSPLEDGAHFEAARFPSPIKLEHHHHHH	not soluble
MGSDKIHHHHHHMDSLDQCIVNACKNSWDKSYLAGTPNKDNCSGFVQSVAAELGVPMPRGNANAMVDGLEQSWTKLASGAEAAQKAAQGFLVIAGLKGRTYGHVAVVISGPLYRQKYPMCWCGSIAGAVGQSQGLKSVGQVWNRTDRDRLNYYVYSLASCSLPRAS	not soluble
MSLSDKTMTADEAVSRLRSGMTLGIGGWGSRRKPMALVRALLRSGITDLTVVSCGGPDVGMLAAAGRIRKLVAAFVTLDSIPLEPHYRAARERGALELMEIDEAMFLWGLRAAAGRLPFLPVRAGIGSDVMRVNPGLRTITSPYVDGETFVAMPALRLDAALVHLNRADRLGNGQYLGPDPYFDDLFCEAADTAYVSCERVVDTAELTKEAAPQTLLVKRHTVTGVVEAEGHHHHHH	not soluble
MTVDLTNVFQQIDGDYDNLKELLREAVAIQSVSGDPSKRDETIRMVHWMKEKLETIGTICELADLGTQELEGKTVKLPPVLLGTLGSDKNKKTLLVYGHLDVQPAAKSDGWDTEPFELVEKDGKLFGRGSSDDKGPVLCWFHAIRAAQKNGIDLPVNIKFCLEGMEESGSVGLPELLEREKDRFLAGVDFVCISDSYWLGTKKPCLTYGLRGICSFFVEVTGIKQDLHSGVFGGVIHEPLQDLMWVMSQLTTVDNRIKIPGLYEQVAPLSAAEEKTYDDIEFDVAEFRDSVGASKLPTEDKKTLLLRRWREPSLAFHGIEGAFYGPGEKTVIPSKVIGKFSIRIVPDMDPEQVNRLTVEYLNKVWAERGSPNVFKPRPGHSAKPWVVDVNDSNFLAGARAMKRVHGVEPDRIREGCSIPITLTFQELTGKSVLLLPIGAADDMAHSQNEKNNIWNYVEGVKTLLAYIMELGSA	not soluble
MLNSYELGTSFSLEYPRLVLPWMSKKMMSSRFPQHTSFKLYASQLNRARFFKMLSFGGTVSYDFQPSRVWKHTVTPFRLAFNTLQHTTTRFDTIVDKNRSLKISLGNQFIPAMSYTFTYDNAPLKKRNNLWWETSFTSAGNLTSLVYAAFGKGFKETDKKLLNSPYAQFLKMTSEVRCLFKVGEKQHIATRLMGGILYAYGNQTVAPYSEQFYIGGANSIRAFTVRSIGPGSYRPEDKQYGYLDETGDVKLEANVEYRFPILGDLYGAAFLDAGNVWLLREQKNEEGENIRPGGLLTLRNFAKSIALGTGVGLRYDLTFLVIRLDLGIALHDPYDTGKKGYYNIPKFKDGLGLHFAIGYPFLEHHHHHH	soluble
MTKQQIEKLADLLPPFAATLYLDMIPEFQEGYASYVYQTPKQDIQKRRIKQLTKNFERLLDTPSFYVMPVTRKTAEQLLADKGLAYHLLSTVAANQVFAAAVNEDQMLFQVLRNGARVAFVILQEKGEFLEMTLGILETVTENEVPAAIVEAVQTYLLADMQEKLPSLSIMVSQESSKLFYQEQGFVLLAKGCKPGNENDSDVCQLVKYFSKP	not soluble
MQWQTKLPLIAILRGITPDEALAHVGAVIDAGFDAVEIPLNSPQWEQSIPAIVDAYGDKALIGAGTVLKPEQVDALARMGCQLIVTPNIHSEVIRRAVGYGMTVCPGCATATEAFTALEAGAQALKIFPSSAFGPQYIKALKAVLPSDIAVFAVGGVTPENLAQWIDAGCAGAGLGSDLYRAGQSVERTAQQAAAFVKAYREAVQLHHHHHH	soluble
MGSDKIHHHHHHMLTSDPSESTAHLQRTISNLSARNAKLAELLKASRDKLSILQDQLEDLAAPPSTYGTFLEFSGGRETAEVFTAGRHMRLRISPDVEKAELVPGVQVRLGEASQVVEVCDISTTGQLATLVELLADNRGLICDHTGEERVVKLAAALTEGVDKLPKAGDTLLVDPRAGYAFEVIPKTEVSTLALEEVPDVTYADIGGLNSQIELIHDAVELPFTQPDLYRAYDLKPPKGVLLYGPPGCGKTLIAKAVANSLAQRIGAGNRSYFINVKGPELLNKYVGETERRIRLIFERARELAEEGRPVIVFFDEMESIFRTRGSGVSSDMETTVVPQLLTELDGVESLSNVIIIGATNREELIDPAILRPGRLDVKIRVERPDKQAARDVFARHLKQNIPTAEPIDSLINNAVDHLYADNPYVELSLIDGSTEILHYRDFVSGAMIANIVDRAKKCAIKDHIAGRHSGVASEHLIAAINAENHESEDLPNTSNPDDWSRIIGRHGLRVAHARVLGGQR	not soluble
MAHPLDLNQLAQHIKQWGQSLGFQQVGICDTDLTAEEPRLQAWLDKQYHGEMAWMARHGMLRARPHELLPGTLRVISVRMNYLPAKAAFASTLNNPELGYVSRYALGRDYHKLLRQRLKKLGDQIQHYCLEQNNLDRHDLELHDLEQHDSERQGQPEQHTASEINFRPFVDSAPIMERSLAAKAGIGWVGKHSLILNRDAGSWFFLGELLIDLPLPVDKPQEEQCGRCVACMTTCPTGAIVAPYTVDARRCISYLTIELEGAIPEEFRPLMGNRIYGCDDCQLICPWNRFSQLTDEDDFSPRAVLHTPQLLDLFAWNEEKFLRVTEGSAIRRIGHLRWLRNISVALGNAPYLDSIVLALETRRGLHPMLDEHIEWAISQQLARRATQAVEVQLPQKKRLIRAIEKGLPRDA	not soluble
MAELPKTLEEAITQSREAVKSALADGVTRIQVDFLFPELKFMPVAEQFVPLFAEYESRVKVFFADAGAAALARRDWQNVPFKVEDIGTGRAASLQTKIQPEDEIFLFIAPTPVEVPQLEKMCEIIDTRPIVLLNPRLEDSGVVGIGYAARETRRRFISTIESCYYLRPVDDESALFRCYPGQWEVWLESNNEYEKIAELPKRPSGDEIDMILMKGQPAKPSEGTPAKKP	soluble
MSNKTSIEGLSALLHTLMLIPQHRWITVRELQQQLALLDIHRTTRSIKRYLDEVIVEVFNVECDSMSMPHVYRKTSEQLLKLNKQEMLYWQLTNKYLLPLVPDALNYGQGSSSERDKPLPHKASAHSKEQEWLAKVHVVLPTIREWNDEQRQVLNAVHTALLHNRMLKISSQVLQQEKALIEPLGLSVQCDALLLLFRLSGQHTIRTLALPLIDEATVSTFSFTYPTDFNLERFMREHDGVSAS	not soluble
MQRVGNTFSNESRVASRCPSVGLAERNRVATMPVRLLRDSPAAQEDNDHARDGFQMKLDAHGFAPEELVVQVDGQWLMVTGQQQLDVRDPERVSYRMSQKVHRKMLPSNLSPTAMTCCLTPSGQLWVRGQCVALALPEAQTGPSPRLGSLGSKASNLTR	soluble
MATYNGQGFIHDQLDSIRNQTLRPDYVLMRDDGSTDDTVKVVEDYIKEHRLDGWSITSNDKNLGWRLNFRQLLIDVLAYEVDYVFFSDQDDTWYHHKNKMQVDIMEERQDINLLSADIDIKKLSEEATIPNNFKFNGEETISKYPLDFSYHNYRQGWTFCLRKSFVDQVMTFYSDNLILSHDNLFAGVSGVIGSGYNLNRSVGEHKRHAENASGNILNMSSSYERHLQELYFVLSYYIILVPFLEKSSSSQLREAKAYLDFNQQRYKNAQNKDFVAILKQMMTKKRFYDSFSNRIRDLVFLLKDIKRSLEHHHHHH	soluble
MKIKSIEARNISIPLNRPIHNPAFKFTHCKYTIVTVTTDEDITGWSFSFGMHHTKAVVDELAEILVGEEIDTRRLYEKMMRTQAVRWDRGGISMRALSAIDIALWDIVGKSCGLPLYRLMGCYREEIPVYYSGGHYPVDSTKTSDMLDYLEQDIGKGLDRGFSSFKIKIGGAAVNQDLERIAFCRKLIGPYRRLMVDAFCAYEADVIIPMAKKFEQYDIGFLEEPVALDDIPGCAYVAANVSMPVALGESHYTMAQFRDIINSKAARILQPDVAYVGGITGFMQYAGIAAYHGLRLAPHWCHDLSVQLALSIPQIRELEYMDQNSALFLIQKVIENPVTAKNGIVRAPEGAGHGLVLDEKAVERYLA	soluble
MGGSHHHHHHGMASALAAVDIRDNLLGISWVDSSWIPILNSGSVLDYFSERSNPFYDRTCNNEVVKMQRLTLEHLNQMVGIEYILLHAQEPILFIIRKQQRQSPAQVIPLADYYIIAGVIYQAPDLGSVINSRVLTAVHGIQSAFDEAMSYCRYHPSKGYWWHFKDHEEQDKVRPKAKRKEEPSSIFQRQRVDALLLDLRQKFPPKFVQLKPGEKPVPVDQTKKEAEPIPETVKPEEKETTKNVQQTVSAKGPPEKRMRLQ	not soluble
MGSDKIHHHHHHMNWDDVRIFLAVARAGQILGAARRLELNHATVSRRIAALEDALRTKLFRRLTTGSELTPAGERFLDIAERMEGEMIAARSTISGEGDDISGTVRIGAPDGFGVAFLARRLGELTALHRELTIQLVPVPRSFSLSRREADIAITVERPTEGRLVAGKLVDYSLGLFASRAYADANGLPKTAAELGRHPLIGYVPDLIVSPSLDYAAEFSADWRTSFAISSALGQAEAVRSGAGIGILHTFVARSMPELVAVDAVAPIRRAYWLVYHESVRPLRRIQIVAGFITKAVERERSLFL	not soluble
